According to the supplement of paper PMC10567573:

B1: CDC25A (parent)
chain: KKFRTKSRTWAGEKSKREMYSRLK
B2: BTBD10 (parent)
chain: DRKLHSRPRKLYKHSSTSSRIAKG

Variants of: B1
Assay: protein stability index of a GFP-peptide fusion (GPS, HEK-293T) (PSI 1-6); higher = more stable
Conditions: c terminus: a fixed tail appended
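Further: lentivirally expressed fusions sorted by FACS into six bins by GFP to DsRed ratio, PSI derived from sequencing read proportions per bin multiplied by bin number.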

Row | Variant | protein stability index
1 | KKFRTKSRTWAGEKSKREMYSRLC [K24C] | 2.08
2 | KKFRTKSRTWAGEKSKREMYSRLA [K24A] | 2.37
3 | KKFRTKSRTWAGEKSKREMYSRLI [K24I] | 2.32
4 | KKFRTKSRTWAGEKSKREMYSRLS [K24S] | 3.16
5 | KKFRTKSRTWAGEKSKREMYSRLM [K24M] | 2.37
6 | KKFRTKSRTWAGEKSKREMYSRLL [K24L] | 2.31
7 | KKFRTKSRTWAGEKSKREMYSRLH [K24H] | 2.62
8 | KKFRTKSRTWAGEKSKREMYSRLD [K24D] | 3.13
9 | KKFRTKSRTWAGEKSKREMYSRLQ [K24Q] | 2.58
10 | KKFRTKSRTWAGEKSKREMYSRLT [K24T] | 2.94
11 | KKFRTKSRTWAGEKSKREMYSRLG [K24G] | 2.52
12 | KKFRTKSRTWAGEKSKREMYSRLY [K24Y] | 1.37
13 | KKFRTKSRTWAGEKSKREMYSRLE [K24E] | 3.27
14 | KKFRTKSRTWAGEKSKREMYSRLF [K24F] | 2.06
15 | KKFRTKSRTWAGEKSKREMYSRLN [K24N] | 3.32
16 | KKFRTKSRTWAGEKSKREMYSRLP [K24P] | 3.49
17 | KKFRTKSRTWAGEKSKREMYSRLR [K24R] | 2.91

Row | Variant | protein stability index
18 | KKFRTKSRTWAGEKSKREMYSRHK [L23H] | 3.39
19 | KKFRTKSRTWAGEKSKREMYSRAK [L23A] | 3.49
20 | KKFRTKSRTWAGEKSKREMYSRVK [L23V] | 3.65
21 | KKFRTKSRTWAGEKSKREMYSRCK [L23C] | 2.87
22 | KKFRTKSRTWAGEKSKREMYSRSK [L23S] | 3.92
23 | KKFRTKSRTWAGEKSKREMYSRKK [L23K] | 3.84
24 | KKFRTKSRTWAGEKSKREMYSRTK [L23T] | 3.61
25 | KKFRTKSRTWAGEKSKREMYSRIK [L23I] | 3.33
26 | KKFRTKSRTWAGEKSKREMYSRPK [L23P] | 3.94
27 | KKFRTKSRTWAGEKSKREMYSRWK [L23W] | 2.41
28 | KKFRTKSRTWAGEKSKREMYSRNK [L23N] | 4.01
29 | KKFRTKSRTWAGEKSKREMYSRQK [L23Q] | 3.74
30 | KKFRTKSRTWAGEKSKREMYSRMK [L23M] | 2.73
31 | KKFRTKSRTWAGEKSKREMYSRYK [L23Y] | 2.57
32 | KKFRTKSRTWAGEKSKREMYSRRK [L23R] | 4.46
33 | KKFRTKSRTWAGEKSKREMYSYLK [R22Y] | 2.03
34 | KKFRTKSRTWAGEKSKREMYSWLK [R22W] | 2.28

Variants of: B2
Assay: as above
Conditions: c terminus: a fixed tail appended

Row | Variant | protein stability index
35 | DRKMHSRPRKLYKHSSTSSRIAKG [L4M] | 4.23
36 | DRKNHSRPRKLYKHSSTSSRIAKG [L4N] | 3.77
37 | DRKPHSRPRKLYKHSSTSSRIAKG [L4P] | 4.11
38 | DRKVHSRPRKLYKHSSTSSRIAKG [L4V] | 3.71
39 | DRKIHSRPRKLYKHSSTSSRIAKG [L4I] | 3.62
40 | DRKKHSRPRKLYKHSSTSSRIAKG [L4K] | 4.28
41 | DRKCHSRPRKLYKHSSTSSRIAKG [L4C] | 3.9
42 | DRKQHSRPRKLYKHSSTSSRIAKG [L4Q] | 4.08
43 | DRKEHSRPRKLYKHSSTSSRIAKG [L4E] | 4.28
44 | DRKFHSRPRKLYKHSSTSSRIAKG [L4F] | 3.92
45 | DRKWHSRPRKLYKHSSTSSRIAKG [L4W] | 3.5
46 | DRKHHSRPRKLYKHSSTSSRIAKG [L4H] | 4.09
47 | DRKAHSRPRKLYKHSSTSSRIAKG [L4A] | 4.42
48 | DRKDHSRPRKLYKHSSTSSRIAKG [L4D] | 4.49
49 | DRKRHSRPRKLYKHSSTSSRIAKG [L4R] | 3.9
50 | DRKTHSRPRKLYKHSSTSSRIAKG [L4T] | 4.3
51 | DRKYHSRPRKLYKHSSTSSRIAKG [L4Y] | 3.8
52 | DRKGHSRPRKLYKHSSTSSRIAKG [L4G] | 3.72
53 | DRKSHSRPRKLYKHSSTSSRIAKG [L4S] | 4.71
54 | DRKLHHRPRKLYKHSSTSSRIAKG [S6H] | 3.68

Row | Variant | protein stability index
55 | DRKLHERPRKLYKHSSTSSRIAKG [S6E] | 4.41
56 | DRKLHGRPRKLYKHSSTSSRIAKG [S6G] | 3.48
57 | DRKLHLRPRKLYKHSSTSSRIAKG [S6L] | 2.4
58 | DRKLHDRPRKLYKHSSTSSRIAKG [S6D] | 4.69
59 | DRKLHTRPRKLYKHSSTSSRIAKG [S6T] | 3.76
60 | DRKLHARPRKLYKHSSTSSRIAKG [S6A] | 3.67
61 | DRKLHRRPRKLYKHSSTSSRIAKG [S6R] | 3.39
62 | DRKLHMRPRKLYKHSSTSSRIAKG [S6M] | 3.46
63 | DRKLHPRPRKLYKHSSTSSRIAKG [S6P] | 4.42
64 | DRKLHNRPRKLYKHSSTSSRIAKG [S6N] | 4.04
65 | DRKLHYRPRKLYKHSSTSSRIAKG [S6Y] | 3.78
66 | DRKLHQRPRKLYKHSSTSSRIAKG [S6Q] | 3.89
67 | DRKLHFRPRKLYKHSSTSSRIAKG [S6F] | 3.18
68 | DRKLHVRPRKLYKHSSTSSRIAKG [S6V] | 3.91
69 | DRKLHKRPRKLYKHSSTSSRIAKG [S6K] | 3.55
70 | DRKLHCRPRKLYKHSSTSSRIAKG [S6C] | 3.43
71 | DRKLHIRPRKLYKHSSTSSRIAKG [S6I] | 3.58
72 | DRKLHWRPRKLYKHSSTSSRIAKG [S6W] | 2.92
73 | DRRLHSRPRKLYKHSSTSSRIAKG [K3R] | 3.63
74 | DRYLHSRPRKLYKHSSTSSRIAKG [K3Y] | 3.37

Row | Variant | protein stability index
75 | DRILHSRPRKLYKHSSTSSRIAKG [K3I] | 3.47
76 | DRVLHSRPRKLYKHSSTSSRIAKG [K3V] | 3.92
77 | DRSLHSRPRKLYKHSSTSSRIAKG [K3S] | 3.57
78 | DRDLHSRPRKLYKHSSTSSRIAKG [K3D] | 4.42
79 | DRPLHSRPRKLYKHSSTSSRIAKG [K3P] | 3.92
80 | DRELHSRPRKLYKHSSTSSRIAKG [K3E] | 4.03
81 | DRFLHSRPRKLYKHSSTSSRIAKG [K3F] | 3.24
82 | DRWLHSRPRKLYKHSSTSSRIAKG [K3W] | 3.64
83 | DRHLHSRPRKLYKHSSTSSRIAKG [K3H] | 4.41
84 | DRTLHSRPRKLYKHSSTSSRIAKG [K3T] | 3.83
85 | DRMLHSRPRKLYKHSSTSSRIAKG [K3M] | 3.56
86 | DRNLHSRPRKLYKHSSTSSRIAKG [K3N] | 3.55
87 | DRQLHSRPRKLYKHSSTSSRIAKG [K3Q] | 3.87
88 | DRLLHSRPRKLYKHSSTSSRIAKG [K3L] | 3.77
89 | DRALHSRPRKLYKHSSTSSRIAKG [K3A] | 4.52
90 | DRCLHSRPRKLYKHSSTSSRIAKG [K3C] | 3.95
91 | DDKLHSRPRKLYKHSSTSSRIAKG [R2D] | 4.04
92 | DQKLHSRPRKLYKHSSTSSRIAKG [R2Q] | 4.19
93 | DSKLHSRPRKLYKHSSTSSRIAKG [R2S] | 4.14
94 | DVKLHSRPRKLYKHSSTSSRIAKG [R2V] | 3.65
